Paper PMC4169746 (Molecular cell, 2014)
Changes are numbered by the printed parent chain. Numbers in names are those of the source. Blank lines part the entries; values can stand above or below the molecule they belong to.

What was measured:
[1] = molecular target: dephosphorylated IRAK4^FL (human) (UniProt Q9NWZ3); assay: SEC-MALS
[2] = molecular target: dephosphorylated IRAK4^KD (human) (UniProt Q9NWZ3); assay: SEC-MALS
SEC-MALS = molecular target: the molecule itself; assay: SEC-MALS
AUC = molecular target: the molecule itself; assay: AUC

stoichiometry N [1]: 2
Molecule: dephosphorylated IRAK4^FL (from UniProt Q9NWZ3 1-460) (enzyme)

stoichiometry N [2]: 2
Molecule: dephosphorylated IRAK4^KD (from UniProt Q9NWZ3 186-454) (domain or fragment)

B1: IRAK4^KD-D311N (IRAK4 kinase domain, catalytically inactive, unphosphorylated) (domain or fragment, human, UniProt Q9NWZ3 164-460, looked up)
chain: RFHSFSFYELKNVTNNFDERPISVGGNKMGEGGFGVVYKGYVNNTTVAVKKLAAMVDITTEELKQQFDQEIKVMAKCQHENLVELLGFSSDGDDLCLVYVYMPNGSLLDRLSCLDGTPPLSWHMRCKIAQGAANGINFLHENHHIHRNIKSANILLDEAFTAKISDFGLARASEKFAQTVMTSRIVGTTAYMAPEALRGEITPKSDIYSFGVVLLEIITGLPAVDEHREPQLLLDIKEEIEDEEKTIEDYIDKKMNDADSTSVEAMYSVASQCLHEKKNKRPDIKKVQQLLQEMTAS
stoichiometry N (SEC-MALS): 2

B2: IRAK4^KD-D311N Y262T (domain or fragment, human, UniProt Q9NWZ3 164-460, looked up)
chain: B1 chain with Y99T
binding result (SEC-MALS): binds

B3: IRAK4^FL-D311N (full-length IRAK4, catalytically inactive, unphosphorylated) (enzyme, human, UniProt Q9NWZ3 1-460, looked up)
chain: MNKPITPSTYVRCLNVGLIRKLSDFIDPQEGWKKLAVAIKKPSGDDRYNQFHIRRFEALLQTGKSPTSELLFDWGTTNCTVGDLVDLLIQNEFFAPASLLLPDAVPKTANTLPSKEAITVQQKQMPFCDKDRTLMTPVQNLEQSYMPPDSSSPENKSLEVSDTRFHSFSFYELKNVTNNFDERPISVGGNKMGEGGFGVVYKGYVNNTTVAVKKLAAMVDITTEELKQQFDQEIKVMAKCQHENLVELLGFSSDGDDLCLVYVYMPNGSLLDRLSCLDGTPPLSWHMRCKIAQGAANGINFLHENHHIHRNIKSANILLDEAFTAKISDFGLARASEKFAQTVMTSRIVGTTAYMAPEALRGEITPKSDIYSFGVVLLEIITGLPAVDEHREPQLLLDIKEEIEDEEKTIEDYIDKKMNDADSTSVEAMYSVASQCLHEKKNKRPDIKKVQQLLQEMTAS
Kd (AUC): 2500 ± 400 nM
